The results in this text go back to publication PMC5595889.

The test deals with GST-tagged importin α7 lacking the IBB (human). Put plainly: pull-down.

Substance “influenza A virus (H1N1 strain A/WSN/33) monomeric nucleoprotein (from UniProt P15682 1-498) (natural protein)” showed a quantity recovered relative to importin α1 of 2 fold.
